From the supplement of paper PMC10567573 come the findings set out here.

The labels stand for the following.
B1: FAM107A (parent)
chain: HRRGLGVDSKPELQRVLEHRRRNQ
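Note: lentivirally expressed fusions sorted by FACS into six bins by GFP to DsRed ratio, PSI derived from sequencing read proportions per bin multiplied by bin number.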

In this series the parent is B1. The series is described as follows: protein stability index of a GFP-peptide fusion (GPS, HEK-293T) (PSI 1-6); higher = more stable. The settings on record: c terminus: a fixed tail appended.
Turning to HRRGLGVDSKPELQRVLEHRRRNH [Q24H], the protein stability index was determined as 3.64.

Take HRRGLGVDSKPELQRVLEHRRRNE [Q24E]: the protein stability index worked out at 4.59.

For HRRGLGVDSKPELQRVLEHRRRNL [Q24L], the protein stability index came to 2.49.

Turning to HRRGLGVDSKPELQRVLEHRRRNM [Q24M], the protein stability index stood at 2.88.

HRRGLGVDSKPELQRVLEHRRRNS [Q24S]: the protein stability index was found to be 3.57.

Regarding HRRGLGVDSKPELQRVLEHRRRNK [Q24K], the protein stability index was determined as 4.39.

As for HRRGLGVDSKPELQRVLEHRRRNC [Q24C], the protein stability index is 3.59.

In the case of HRRGLGVDSKPELQRVLEHRRRND [Q24D], the protein stability index came to 3.81.

Regarding HRRGLGVDSKPELQRVLEHRRRNW [Q24W], the protein stability index amounted to 2.73.

With HRRGLGVDSKPELQRVLEHRRRNV [Q24V], the protein stability index turned out to be 3.24.

For HRRGLGVDSKPELQRVLEHRRRNP [Q24P], the protein stability index is 2.74.

On to HRRGLGVDSKPELQRVLEHRRRNA [Q24A], for which the protein stability index turned out to be 3.88.

With HRRGLGVDSKPELQRVLEHRRRNT [Q24T], the protein stability index is 3.78.

For the variant HRRGLGVDSKPELQRVLEHRRRNI [Q24I], the protein stability index was 2.4.

Consider HRRGLGVDSKPELQRVLEHKRRNQ [R20K], for which the protein stability index was found to be 4.79.

As to HRRGLGVDSKPELQRVLEHGRRNQ [R20G], the protein stability index came to 3.95.

With HRRGLGVDSKPELQRVLEHNRRNQ [R20N], the protein stability index stood at 4.04.

For the variant HRRGLGVDSKPELQRVLEHIRRNQ [R20I], the protein stability index was 3.78.

With HRRGLGVDSKPELQRVLEHPRRNQ [R20P], the protein stability index amounted to 4.59.

HRRGLGVDSKPELQRVLEHCRRNQ [R20C]: the protein stability index came to 4.53.

Regarding HRRGLGVDSKPELQRVLEHSRRNQ [R20S], the protein stability index turned out to be 4.27.

With HRRGLGVDSKPELQRVLEHERRNQ [R20E], the protein stability index worked out at 4.33.

On to HRRGLGVDSKPELQRVLEHQRRNQ [R20Q], for which the protein stability index turned out to be 3.96.

Regarding HRRGLGVDSKPELQRVLEHARRNQ [R20A], the protein stability index worked out at 3.36.

As to HRRGLGVDSKPELQRVLEHYRRNQ [R20Y], the protein stability index turned out to be 3.41.

For the variant HRRGLGVDSKPELQRVLEHLRRNQ [R20L], the protein stability index came out at 3.31.

Turning to HRRGLGVDSKPELQRVLEHWRRNQ [R20W], the protein stability index was found to be 3.47.

On to HRRGLGVDSKPELQRVLEHDRRNQ [R20D], for which the protein stability index worked out at 3.98.

Take HRRGLGVDSKPELQRVLEHTRRNQ [R20T]: the protein stability index turned out to be 4.42.

As to HRRGLGVDSKPELQRVLEHFRRNQ [R20F], the protein stability index came out at 2.69.

For the variant HRRGLGVDSKPELQRVLEHMRRNQ [R20M], the protein stability index came to 4.04.

Regarding HRRGLGVDSKPELQRVLNHRRRNQ [E18N], the protein stability index was 4.02.

For the variant HRRGLGVDSKPELQRVLSHRRRNQ [E18S], the protein stability index was determined as 2.71.

Consider HRRGLGVDSKPELQRVLPHRRRNQ [E18P], for which the protein stability index was determined as 5.02.

Turning to HRRGLGVDSKPELQRVLQHRRRNQ [E18Q], the protein stability index is 2.67.

As for HRRGLGVDSKPELQRVLRHRRRNQ [E18R], the protein stability index came out at 4.12.

Consider HRRGLGVDSKPELQRVLMHRRRNQ [E18M], for which the protein stability index was found to be 2.48.

On to HRRGLGVDSKPELQRVLTHRRRNQ [E18T], for which the protein stability index came to 3.58.

Consider HRRGLGVDSKPELQRVLYHRRRNQ [E18Y], for which the protein stability index is 4.17.

As for HRRGLGVDSKPELQRVLEHRYRNQ [R21Y], the protein stability index came to 3.98.

On to HRRGLGVDSKPELQRVLEHRLRNQ [R21L], for which the protein stability index was found to be 3.77.

Regarding HRRGLGVDSKPELQRVLEHRKRNQ [R21K], the protein stability index is 4.15.

For the variant HRRGLGVDSKPELQRVLEHRMRNQ [R21M], the protein stability index came to 4.09.

Consider HRRGLGVDSKPELQRVLEHRHRNQ [R21H], for which the protein stability index came to 4.38.

HRRGLGVDSKPELQRVLEHRCRNQ [R21C]: the protein stability index came out at 3.39.

HRRGLGVDSKPELQRVLEHRERNQ [R21E]: the protein stability index amounted to 5.04.

Consider HRRGLGVDSKPELQRVLEHRNRNQ [R21N], for which the protein stability index was 4.74.

Take HRRGLGVDSKPELQRVLEHRIRNQ [R21I]: the protein stability index amounted to 3.86.

As to HRRGLGVDSKPELQRVLEHRTRNQ [R21T], the protein stability index was found to be 3.48.

As for HRRGLGVDSKPELQRVLEHRSRNQ [R21S], the protein stability index amounted to 3.37.

In the case of HRRGLGVDSKPELQRVLEHRQRNQ [R21Q], the protein stability index is 4.38.

As to HRRGLGVDSKPELQRVLEHRWRNQ [R21W], the protein stability index came out at 3.64.

As for HRRGLGVDSKPELQRVLEHRDRNQ [R21D], the protein stability index was 4.11.

For the variant HRRGLGVDSKPELQRVLEYRRRNQ [H19Y], the protein stability index came out at 3.72.

For HRRGLGVDSKPELQRVLEQRRRNQ [H19Q], the protein stability index worked out at 3.67.

Take HRRGLGVDSKPELQRVLERRRRNQ [H19R]: the protein stability index came out at 4.54.

As to HRRGLGVDSKPELQRVLEIRRRNQ [H19I], the protein stability index is 4.04.

Turning to HRRGLGVDSKPELQRVLEDRRRNQ [H19D], the protein stability index came out at 5.29.

As for HRRGLGVDSKPELQRVLECRRRNQ [H19C], the protein stability index worked out at 2.01.

Consider HRRGLGVDSKPELQRVLEPRRRNQ [H19P], for which the protein stability index stood at 4.29.

For HRRGLGVDSKPELQRVLENRRRNQ [H19N], the protein stability index is 4.93.

As for HRRGLGVDSKPELQRVLELRRRNQ [H19L], the protein stability index stood at 4.45.

Regarding HRRGLGVDSKPELQRVLEWRRRNQ [H19W], the protein stability index was 1.53.

Take HRRGLGVDSKPELQRVLEMRRRNQ [H19M]: the protein stability index worked out at 4.13.

Take HRRGLGVDSKPELQRVLEGRRRNQ [H19G]: the protein stability index was 4.68.

Consider HRRGLGVDSKPELQRVLEKRRRNQ [H19K], for which the protein stability index came out at 4.29.

Take HRRGLGVDSKPELQRVLESRRRNQ [H19S]: the protein stability index was 4.82.

Regarding HRRGLGVDSKPELQRVLEHRRSNQ [R22S], the protein stability index came out at 4.79.

For HRRGLGVDSKPELQRVLEHRRLNQ [R22L], the protein stability index was 3.4.

With HRRGLGVDSKPELQRVLEHRRDNQ [R22D], the protein stability index was found to be 4.62.

In the case of HRRGLGVDSKPELQRVLEHRRWNQ [R22W], the protein stability index was found to be 2.46.

As for HRRGLGVDSKPELQRVLEHRRPNQ [R22P], the protein stability index was determined as 4.36.

For the variant HRRGLGVDSKPELQRVLEHRRQNQ [R22Q], the protein stability index turned out to be 3.57.

Take HRRGLGVDSKPELQRVLEHRRNNQ [R22N]: the protein stability index is 3.48.

Consider HRRGLGVDSKPELQRVLEHRRYNQ [R22Y], for which the protein stability index is 3.82.

Turning to HRRGLGVDSKPELQRVLEHRRCNQ [R22C], the protein stability index came out at 3.6.

Regarding HRRGLGVDSKPELQRVLEHRRANQ [R22A], the protein stability index stood at 4.63.

Take HRRGLGVDSKPELQRVLEHRRTNQ [R22T]: the protein stability index turned out to be 3.76.

For the variant HRRGLGVDSKPELQRVLEHRRFNQ [R22F], the protein stability index was 3.43.

For the variant HRRGLGVDSKPELQRVLEHRRHNQ [R22H], the protein stability index was found to be 3.55.

For HRRGLGVDSKPELQRVLEHRRKNQ [R22K], the protein stability index worked out at 4.46.

On to HRRGLGVDSKPELQRVLEHRRGNQ [R22G], for which the protein stability index was determined as 3.64.

Regarding HRRGLGVDSKPELQRVLEHRRREQ [N23E], the protein stability index is 3.52.

For HRRGLGVDSKPELQRVLEHRRRVQ [N23V], the protein stability index was found to be 3.33.

For HRRGLGVDSKPELQRVLEHRRRRQ [N23R], the protein stability index amounted to 3.26.

Turning to HRRGLGVDSKPELQRVLEHRRRHQ [N23H], the protein stability index is 2.74.

Regarding HRRGLGVDSKPELQRVLEHRRRPQ [N23P], the protein stability index stood at 3.03.

With HRRGLGVDSKPELQRVLEHRRRCQ [N23C], the protein stability index was 2.37.

Regarding HRRGLGVDSKPELQRVLEHRRRLQ [N23L], the protein stability index worked out at 2.35.

HRRGLGVDSKPELQRVLEHRRRDQ [N23D]: the protein stability index was 3.85.

As to HRRGLGVDSKPELQRVLEHRRRIQ [N23I], the protein stability index came to 2.32.

As to HRRGLGVDSKPELQRVLEHRRRAQ [N23A], the protein stability index was found to be 2.99.

As for HRRGLGVDSKPELQRVLEHRRRFQ [N23F], the protein stability index came to 4.65.

Turning to HRRGLGVDSKPELQRVLEHRRRQQ [N23Q], the protein stability index was 3.14.
